Source: article PMC7076015 (2020)

B1: Flag-myc-hnRNP R (wild type) [not stated] / HA-KPNA7 [human] (parent complex)
chain 1: MANQVNGNAVQLKEEEEPMDTSSVTHTEHYKTLIEAGLPQKVAERLDEIFQTGLVAYVDLDERAIDALREFNEEGALSVLQQFKESDLSHVQNKSAFLCGVMKTYRQREKQGSKVQESTKGPDEAKIKALLERTGYTLDVTTGQRKYGGPPPDSVYSGVQPGIGTEVFVGKIPRDLYEDELVPLFEKAGPIWDLRLMMDPLSGQNRGYAFITFCGKEAAQEAVKLCDSYEIRPGKHLGVCISVANNRLFVGSIPKNKTKENILEEFSKVTEGLVDVILYHQPDDKKKNRGFCFLEYEDHKSAAQARRRLMSGKVKVWGNVVTVEWADPVEEPDPEVMAKVKVLFVRNLATTVTEEILEKSFSEFGKLERVKKLKDYAFVHFEDRGAAVKAMDEMNGKEIEGEEIEIVLAKPPDKKRKERQAARQASRSTAYEDYYYHPPPRMPPPIRGRGRGGGRGGYGYPPDYYGYEDYYDDYYGYDYHDYRGGYEDPYYGYDDGYAVRGRGGGRGGRGAPPPPRGRGAPPPRGRAGYSQRGAPLGPPRGSRGGRGGPAQQQRGRGSRGSRGNRGGNVGGKRKADGYNQPDSKRRQTNNQQNWGSQPIAQQPLQQGGDYSGNYGYNNDNQEFYQDTYGQQWK
chain 2: not shown

Variants of: B1
Assay: co-immunoprecipitation (HA-IP, Flag western blot quantified); HEK293T(HA-KPNA7) cell extracts; input 2%, IP 30%; parent: 1

In order of falling ratio to parent:
1. chain 1 K414A, chain 1 K415A, chain 1 R416A  0.43
2. chain 1 K572A, chain 1 R573A, chain 1 K574A  0.21
3. chain 1 K584A, chain 1 R585A, chain 1 R586A  0.2
